One substance from patent publication US20250277048A1 can be followed below.

This assay addresses human CD40 (hCD40) expressed on cells (human) (UniProt P25942). As to the kind of experiment: cell-based or functional assay.

Chain of human CD40 (hCD40) expressed on cells (human) (P25942 21-277): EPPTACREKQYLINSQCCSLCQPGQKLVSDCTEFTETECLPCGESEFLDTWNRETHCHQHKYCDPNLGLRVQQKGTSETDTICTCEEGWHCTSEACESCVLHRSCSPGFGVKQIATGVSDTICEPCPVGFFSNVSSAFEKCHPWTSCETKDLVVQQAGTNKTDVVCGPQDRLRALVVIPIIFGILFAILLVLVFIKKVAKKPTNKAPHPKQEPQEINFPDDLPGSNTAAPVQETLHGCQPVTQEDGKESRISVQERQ

The substance “human CD40L (soluble, used in the cell assays) (from UniProt P29965 113-261) (ligand)” had an EC50 of activation, Raji/NFkB-luc of 0.691 nM; an EC50 of activation, Ramos.2G6.4C10/NFkB-luc of 0.436 nM; an EC50 of activation, THP-1/NFkB-luc of 1.47 nM.
